Numbering of substitutions follows the chain as printed. Numbers in names are those of the source.
T1: recombinant human C5a (human, UniProt P01031 678-751)
T1 sequence: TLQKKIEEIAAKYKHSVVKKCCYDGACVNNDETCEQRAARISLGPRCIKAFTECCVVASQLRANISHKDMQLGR

B1: VH4Vk3 (IFX-2 clone) (antibody, IgG4)
heavy: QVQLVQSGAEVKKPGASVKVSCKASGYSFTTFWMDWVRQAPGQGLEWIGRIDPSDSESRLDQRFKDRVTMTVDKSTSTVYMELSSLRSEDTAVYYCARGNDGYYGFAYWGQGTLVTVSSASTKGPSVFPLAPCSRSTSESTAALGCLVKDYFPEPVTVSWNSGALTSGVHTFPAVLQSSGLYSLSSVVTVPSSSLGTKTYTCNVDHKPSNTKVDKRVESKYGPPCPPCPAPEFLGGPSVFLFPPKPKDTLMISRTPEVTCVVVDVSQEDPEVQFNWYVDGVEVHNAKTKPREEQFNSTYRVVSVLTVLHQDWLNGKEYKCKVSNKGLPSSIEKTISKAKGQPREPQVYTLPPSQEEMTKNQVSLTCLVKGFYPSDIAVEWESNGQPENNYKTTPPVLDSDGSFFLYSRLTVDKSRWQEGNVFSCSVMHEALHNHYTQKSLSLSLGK
light: DIQLTQSPSSLSASVGDRVTITCKASQSVDYDGDSYMKWYQQKPGKAPKLLIYAASNLQSGIPSRFSGSGSGTDFTLTISSLQPEDFATYYCQQSNEDPYTFGQGTKLEIK
notes: Humanized IgG4 (S241P) / kappa; also called VH4/Vκ3; not shown: human kappa light chain constant domain
B2: VH2Vk4 (IFX-2 clone) (antibody, IgG4, V domains shown)
VH: QVQLVQSGAEVKKPGASVKISCKASGYSFTTFWMDWVKQAPGQGLEWIGRIDPSDSESRLDQRFKDRATLTVDKSTSTVYMELSSLRSEDTAVYYCARGNDGYYGFAYWGQGTLVTVSS
VL: B1 light with L4M, I62V
notes: Humanized IgG4 (S241P) / kappa; also called VH2/Vκ4; not shown: human kappa light chain constant domain
B3: VH5Vk1 (IFX-2 clone) (antibody, IgG4, V domains shown)
VH: B2 VH with I20V, K38R, I48M, R63K, A68V, L70M
VL: B1 light with Q3V, S9A, S12A, P84E
notes: Humanized IgG4 (S241P) / kappa; also called VH5/Vκ1; not shown: human kappa light chain constant domain
B4: VH5Vk3 (IFX-2 clone) (antibody, IgG4)
heavy: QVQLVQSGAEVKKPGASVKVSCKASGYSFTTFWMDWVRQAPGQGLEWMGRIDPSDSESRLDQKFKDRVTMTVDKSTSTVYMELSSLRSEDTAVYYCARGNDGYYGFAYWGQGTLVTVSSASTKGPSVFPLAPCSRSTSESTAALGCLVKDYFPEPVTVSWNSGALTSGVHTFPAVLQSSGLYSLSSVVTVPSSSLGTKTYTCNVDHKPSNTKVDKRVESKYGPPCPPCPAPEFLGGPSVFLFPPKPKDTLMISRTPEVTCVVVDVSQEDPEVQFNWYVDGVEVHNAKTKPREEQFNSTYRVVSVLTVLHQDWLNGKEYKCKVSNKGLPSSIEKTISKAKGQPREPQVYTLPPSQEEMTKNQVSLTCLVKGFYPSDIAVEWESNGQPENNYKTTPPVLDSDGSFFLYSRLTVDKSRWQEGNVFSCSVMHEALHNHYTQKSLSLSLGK
light: B1 light
notes: Humanized IgG4 (S241P) / kappa; also called VH5/Vκ3; not shown: human kappa light chain constant domain
B5: VH5Vk2 (IFX-2 clone) (antibody, IgG4)
heavy: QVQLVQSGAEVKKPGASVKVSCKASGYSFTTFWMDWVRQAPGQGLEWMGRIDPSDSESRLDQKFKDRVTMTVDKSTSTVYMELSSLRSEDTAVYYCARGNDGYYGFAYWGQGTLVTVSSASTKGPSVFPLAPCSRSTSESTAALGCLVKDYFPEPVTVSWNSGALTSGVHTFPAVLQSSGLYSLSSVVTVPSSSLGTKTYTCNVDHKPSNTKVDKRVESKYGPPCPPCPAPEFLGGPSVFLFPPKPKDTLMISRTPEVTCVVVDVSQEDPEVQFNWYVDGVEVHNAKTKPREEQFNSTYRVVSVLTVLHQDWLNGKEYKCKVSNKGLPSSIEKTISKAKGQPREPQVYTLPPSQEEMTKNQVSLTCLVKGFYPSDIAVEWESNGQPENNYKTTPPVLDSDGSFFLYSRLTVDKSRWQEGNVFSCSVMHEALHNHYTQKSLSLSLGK
light: B1 light with Q3V, S9A
notes: Humanized IgG4 (S241P) / kappa; also called VH5/Vκ2; not shown: human kappa light chain constant domain
B6: VH2Vk3 (IFX-2 clone) (antibody, IgG4, V domains shown)
VH: B2 VH
VL: B1 light
notes: Humanized IgG4 (S241P) / kappa; also called VH2/Vκ3; not shown: human kappa light chain constant domain
B7: VH4Vk4 (IFX-2 clone) (antibody, IgG4, V domains shown)
VH: B2 VH with I20V, K38R, A68V, L70M
VL: B1 light with L4M, I62V
notes: Humanized IgG4 (S241P) / kappa; also called VH4/Vκ4; not shown: human kappa light chain constant domain
B8: VH4Vk2 (IFX-2 clone) (antibody, IgG4)
heavy: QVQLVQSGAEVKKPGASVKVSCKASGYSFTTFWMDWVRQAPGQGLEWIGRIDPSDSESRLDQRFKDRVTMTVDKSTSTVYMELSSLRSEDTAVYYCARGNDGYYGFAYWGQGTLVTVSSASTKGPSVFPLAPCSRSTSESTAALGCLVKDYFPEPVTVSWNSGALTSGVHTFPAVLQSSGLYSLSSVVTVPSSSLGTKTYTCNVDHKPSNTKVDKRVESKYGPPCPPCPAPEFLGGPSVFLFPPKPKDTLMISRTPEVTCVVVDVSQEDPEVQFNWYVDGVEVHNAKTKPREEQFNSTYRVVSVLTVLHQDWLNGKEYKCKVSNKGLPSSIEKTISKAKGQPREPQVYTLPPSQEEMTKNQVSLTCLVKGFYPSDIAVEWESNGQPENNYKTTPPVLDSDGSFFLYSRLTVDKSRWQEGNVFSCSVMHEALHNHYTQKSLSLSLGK
light: B1 light with Q3V, S9A
notes: Humanized IgG4 (S241P) / kappa; also called VH4/Vκ2; not shown: human kappa light chain constant domain
B9: VH5Vk4 (IFX-2 clone) (antibody, IgG4, V domains shown)
VH: B2 VH with I20V, K38R, I48M, R63K, A68V, L70M
VL: B1 light with L4M, I62V
notes: Humanized IgG4 (S241P) / kappa; also called VH5/Vκ4; not shown: human kappa light chain constant domain
B10: VH4Vk1 (IFX-2 clone) (antibody, IgG4, V domains shown)
VH: B2 VH with I20V, K38R, A68V, L70M
VL: B1 light with Q3V, S9A, S12A, P84E
notes: Humanized IgG4 (S241P) / kappa; also called VH4/Vκ1; not shown: human kappa light chain constant domain
B11: VH3Vk2 (IFX-2 clone) (antibody, IgG4, V domains shown)
VH: B2 VH with I20V, K38R
VL: B1 light with Q3V, S9A
notes: Humanized IgG4 (S241P) / kappa; also called VH3/Vκ2; not shown: human kappa light chain constant domain
B12: VH3Vk4 (IFX-2 clone) (antibody, IgG4, V domains shown)
VH: B2 VH with I20V, K38R
VL: B1 light with L4M, I62V
notes: Humanized IgG4 (S241P) / kappa; also called VH3/Vκ4; not shown: human kappa light chain constant domain
B13: IFX-1 (VH0/Vκ0), chimeric anti-human C5a IgG4 antibody (antibody, V domains shown)
VH: QVQLQQSGPQLVRPGTSVKISCKASGYSFTTFWMDWVKQRPGQGLEWIGRIDPSDSESRLDQRFKDRATLTVDKSSSTVYMQLSSPTSEDSAVYYCARGNDGYYGFAYWGQGTLVTVSS
VL: DIVLTQSPASLAVSLGQRATISCKASQSVDYDGDSYMKWYQQKPGQPPKLLIYAASNLQSGIPARFSGSGSGTDFTLNIHPVEEEDAATYYCQQSNEDPYTFGGGTKLEIK
notes: also called VH0Vk0; VH0Vk0 (IFX-1); not shown: human kappa light chain constant domain

Legend:
recombinant human C5a [1] = biological target: T1, recombinant human C5a; test: cell-based or functional assay
recombinant human C5a [2] = biological target: T1, recombinant human C5a; test: ELISA on C5a (ABZENA), 0-100 ng/mL antibody

Binder | relative blocking activity on rhC5a-induced CD11b upregulation on granulocytes in human whole blood (flow cytometry MFI), 16.7 nM rhC5a, Ag:Ab 1:1, IFX-1 set to 100% [lower graph] (recombinant human C5a [1]) | Relative EC50 (recombinant human C5a [2]) | relative blocking activity on rhC5a-induced CD11b upregulation on granulocytes in human whole blood (flow cytometry MFI), 16.7 nM rhC5a, Ag:Ab 1:1, IFX-1 set to 100% [upper graph] (recombinant human C5a [1])
B1 | 102% | 0.91 relative to IFX-1 (VH0Vk0) | –
B2 | – | 0.99 relative to IFX-1 (VH0Vk0) | –
B3 | 101% | 1.28 relative to IFX-1 (VH0Vk0) | –
B4 | – | 1.14 relative to IFX-1 (VH0Vk0) | 96%
B5 | 103% | 1.05 relative to IFX-1 (VH0Vk0) | –
B6 | – | 1.09 relative to IFX-1 (VH0Vk0) | –
B7 | – | 1.03 relative to IFX-1 (VH0Vk0) | 102%
B8 | 104% | 0.86 relative to IFX-1 (VH0Vk0) | –
B9 | – | 1.53 relative to IFX-1 (VH0Vk0) | 94%
B10 | – | 1 relative to IFX-1 (VH0Vk0) | 98%
B11 | – | 1.05 relative to IFX-1 (VH0Vk0) | 96%
B12 | 103% | 0.86 relative to IFX-1 (VH0Vk0) | –
B13 | – | 1 relative to IFX-1 (VH0Vk0) | –
